Measured values reported in PMC6736097 (Nucleic Acids Research, 2019).

B2: ILP1 split-YFP fusion for BiFC (ILP1-nYFP and ILP1-cYFP) (natural protein)
chain: MGSNRPKNFRRRGDDGGDEIDGKVATPSSKPTSTLSSSKPKTLSASAPKKKLLSFADDEEEEEDGAPRVTIKPKNGRDRVKSSSRLGVSGSSHRHSSTKERRPASSNVLPQAGSYSKEALLELQKNTRTLPYSRSSANAEPKVVLKGLIKPPQDHEQQSLKDVVKQVSDLDFDEEGEEEQHEDAFADQAAIIRAKKERMRQSRSAPAPDYISLDGGIVNHSAVEGVSDEDADFQGIFVGPRPQKDDKKGVFDFGDENPTAKETTTSSIYEDEDEEDKLWEEEQFKKGIGKRMDEGSHRTVTSNGIGVPLHSKQQTLPQQQPQMYAYHAGTPMPNVSVAPTIGPATSVDTLPMSQQAELAKKALKDNVKKLKESHAKTLSSLTKTDENLTASLMSITALESSLSAAGDKYVFMQKLRDFISVICDFMQNKGSLIEEIEDQMKELNEKHALSILERRIADNNDEMIELGAAVKAAMTVLNKHGSSSSVIAAATGAALAASTSIRQQMNQPVKLDEFGRDENLQKRREVEQRAAARQKRRARFENKRASAMEVDGPSLKIEGESSTDESDTETSAYKETRDSLLQCADKVFSDASEEYSQLSKVKARFERWKRDYSSTYRDAYMSLTVPSIFSPYVRLELLKWDPLHQDVDFFDMKWHGLLFDYGKPEDGDDFAPDDTDANLVPELVEKVAIPILHHQIVRCWDILSTRETRNAVAATSLVTNYVSASSEALAELFAAIRARLVEAIAAISVPTWDPLVLKAVPNTPQVAAYRFGTSVRLMRNICMWKDILALPVLENLALSDLLFGKVLPHVRSIASNIHDAVTRTERIVASLSGVWTGPSVTRTHSRPLQPLVDCTLTLRRILEKRLGSGLDDAETTGLARRLKRILVELHEHDHAREIVRTFNLKEAV

How the values were obtained:
[1] = target: B2; assay: split reporter
PRP43b-cYFP = PRP43b-cYFP (Arabidopsis thaliana, UniProt O22899 1-729); assay: split reporter
PRP43b-cYFP, sequence (O22899 whole entry): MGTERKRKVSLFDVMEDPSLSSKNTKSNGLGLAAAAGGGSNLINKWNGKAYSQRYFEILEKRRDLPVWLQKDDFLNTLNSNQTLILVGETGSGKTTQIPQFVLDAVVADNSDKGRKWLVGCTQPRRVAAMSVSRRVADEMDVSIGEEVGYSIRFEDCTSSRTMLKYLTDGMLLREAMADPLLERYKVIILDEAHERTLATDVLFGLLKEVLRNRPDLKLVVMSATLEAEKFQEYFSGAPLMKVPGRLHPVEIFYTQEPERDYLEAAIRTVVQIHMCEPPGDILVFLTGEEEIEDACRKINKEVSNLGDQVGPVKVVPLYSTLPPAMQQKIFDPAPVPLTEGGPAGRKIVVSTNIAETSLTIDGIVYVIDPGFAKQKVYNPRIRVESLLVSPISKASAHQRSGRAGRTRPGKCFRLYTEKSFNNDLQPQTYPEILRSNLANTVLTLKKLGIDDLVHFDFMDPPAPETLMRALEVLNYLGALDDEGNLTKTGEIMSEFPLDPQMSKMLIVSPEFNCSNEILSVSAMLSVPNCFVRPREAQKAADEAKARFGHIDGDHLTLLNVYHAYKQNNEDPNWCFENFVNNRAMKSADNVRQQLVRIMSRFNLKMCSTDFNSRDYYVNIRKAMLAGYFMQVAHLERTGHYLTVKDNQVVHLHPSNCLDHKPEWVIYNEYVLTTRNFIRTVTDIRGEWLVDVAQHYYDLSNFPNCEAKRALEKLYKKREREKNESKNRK

B1: NTR1 split-YFP fusion for BiFC (NTR1-nYFP) (natural protein)
chain: not shown
positive BiFC ratio (percent of protoplasts) [1]: 41.4%
positive BiFC ratio (percent of protoplasts) (PRP43b-cYFP): 14.7%

B2
positive BiFC ratio (percent of protoplasts) (PRP43b-cYFP): 1.4%
